Data reported in US20220048967A1 (published 2022).
Numbered stars: 1 amine (or outer) side, 2 acyl side, 3 side chain; on linkers, the order of the positions; unused ones are H or OH. Square brackets hold non-standard residues; d marks the D form. Side chains are listed from the residue outwards. Ends that are not written are not given here. * marks the point of attachment. C20 diacid = O=C(O)CCCCCCCCCCCCCCCCCCC(=O)*; C18 diacid = O=C(O)CCCCCCCCCCCCCCCCC(=O)*; γGlu = O=C(O)[C@H](CCC(=O)[*:2])N[*:1]; AEEA = NCCOCCOCC(=O)O; Aib = CC(C)(N)C(=O)O

T1: human gastric inhibitory peptide receptor (GIPR) (human, UniProt P48546 22-466)
T1 sequence (looked up): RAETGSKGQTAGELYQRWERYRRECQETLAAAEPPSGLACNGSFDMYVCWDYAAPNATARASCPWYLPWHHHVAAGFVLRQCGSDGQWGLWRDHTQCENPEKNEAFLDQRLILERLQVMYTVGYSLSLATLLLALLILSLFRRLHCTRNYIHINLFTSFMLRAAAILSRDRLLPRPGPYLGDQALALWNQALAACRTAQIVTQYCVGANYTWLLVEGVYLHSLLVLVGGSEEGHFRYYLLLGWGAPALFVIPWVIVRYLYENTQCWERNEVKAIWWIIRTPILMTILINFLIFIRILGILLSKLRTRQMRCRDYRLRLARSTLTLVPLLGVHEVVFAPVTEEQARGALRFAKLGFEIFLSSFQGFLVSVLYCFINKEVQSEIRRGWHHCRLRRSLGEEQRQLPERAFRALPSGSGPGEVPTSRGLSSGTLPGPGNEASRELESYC


What was measured:
[1] = molecular target: T1, human gastric inhibitory peptide …; experiment: cell-based or functional assay
[2] = molecular target: human GLP-1 receptor (GLP-1R) (human, UniProt P43220 24-463); experiment: cell-based or functional assay

| Binder | hGIPR cAMP EC50 ratio [1] | hGIPR cAMP Rel EC50 [1] [nM] | hGLP1R cAMP EC50 ratio [2] | hGLP1R cAMP Rel EC50 [2] [nM] |
| --- | --- | --- | --- | --- |
| YXEGTFTSDYSIXLDEKAQXAFIEYLIEGGPSSGAPPPS (Aib2, αMeL13, (2-[2-(2-Amino-ethoxy)-ethoxy]-acetyl)2-(γ-Glu)-CO-(CH2)16-CO2H on K17, Aib20, C-terminal NH2) [Example 323] | 3.24 | 0.0251 | 1.32 | 0.0597 |
| YXEGTFTSDYSIXLDKKAQXAFIEYLIAGGPSSGAPPPS (Aib2, αMeL13, (2-[2-(2-Amino-ethoxy)-ethoxy]-acetyl)2-(γ-Glu)-CO-(CH2)1s-CO2H (so in the source); probably (CH2)18) on K17, Aib20, C-terminal NH2) [Example 324] | 2.13 | 0.0374 | 0.798 | 0.0926 |
| YXEGTXTSDYSILLDKKAQXAFIEYLIEGGPSSGAPPPS (Aib2, αMeF(2F)6, (2-[2-(2-Amino-ethoxy)-ethoxy]-acetyl)2-(γ-Glu)-CO-(CH2)18-CO2H on K17, Aib20, C-terminal NH2) [Example 325] | 2.65 | 0.0301 | 1.16 | 0.0586 |
| Y[Aib]EGTFTSDYSILLDKK([AEEA-AEEA-γGlu-C20 diacid])AQ[Aib]EFIEYLIAGGPSSG-NH2 (N-terminus assumed; SMILES CC[C@H](C)[C@H](NC(=O)[C@H](CC(C)C)NC(=O)[C@H](Cc1ccc(O)cc1)NC(=O)[C@H](CCC(=O)O)NC(=O)[C@@H](NC(=O)[C@H](Cc1ccccc1)NC(=O)[C@H](CCC(=O)O)NC(=O)C(C)(C)NC(=O)[C@H](CCC(N)=O)NC(=O)[C@H](C)NC(=O)[C@H](CCCCNC(=O)COCCOCCNC(=O)COCCOCCNC(=O)CC[C@H](NC(=O)CCCCCCCCCCCCCCCCCCC(=O)O)C(=O)O)NC(=O)[C@H](CCCCN)NC(=O)[C@H](CC(=O)O)NC(=O)[C@H](CC(C)C)NC(=O)[C@H](CC(C)C)NC(=O)[C@@H](NC(=O)[C@H](CO)NC(=O)[C@H](Cc1ccc(O)cc1)NC(=O)[C@H](CC(=O)O)NC(=O)[C@H](CO)NC(=O)[C@@H](NC(=O)[C@H](Cc1ccccc1)NC(=O)[C@@H](NC(=O)CNC(=O)[C@H](CCC(=O)O)NC(=O)C(C)(C)NC(=O)[C@@H](N)Cc1ccc(O)cc1)[C@@H](C)O)[C@@H](C)O)[C@@H](C)CC)[C@@H](C)CC)C(=O)N[C@@H](C)C(=O)NCC(=O)NCC(=O)N1CCC[C@H]1C(=O)N[C@@H](CO)C(=O)N[C@@H](CO)C(=O)NCC(N)=O) [Example 318] | 1.69 | 0.0547 | 0.482 | 0.124 |
| Y[Aib]EGTFTSDYSILLDKK([AEEA-AEEA-γGlu-C18 diacid])AQ[Aib]TFIEYLIEGGPSSG-NH2 (N-terminus assumed; SMILES CC[C@H](C)[C@H](NC(=O)[C@H](CC(C)C)NC(=O)[C@H](Cc1ccc(O)cc1)NC(=O)[C@H](CCC(=O)O)NC(=O)[C@@H](NC(=O)[C@H](Cc1ccccc1)NC(=O)[C@@H](NC(=O)C(C)(C)NC(=O)[C@H](CCC(N)=O)NC(=O)[C@H](C)NC(=O)[C@H](CCCCNC(=O)COCCOCCNC(=O)COCCOCCNC(=O)CC[C@H](NC(=O)CCCCCCCCCCCCCCCCC(=O)O)C(=O)O)NC(=O)[C@H](CCCCN)NC(=O)[C@H](CC(=O)O)NC(=O)[C@H](CC(C)C)NC(=O)[C@H](CC(C)C)NC(=O)[C@@H](NC(=O)[C@H](CO)NC(=O)[C@H](Cc1ccc(O)cc1)NC(=O)[C@H](CC(=O)O)NC(=O)[C@H](CO)NC(=O)[C@@H](NC(=O)[C@H](Cc1ccccc1)NC(=O)[C@@H](NC(=O)CNC(=O)[C@H](CCC(=O)O)NC(=O)C(C)(C)NC(=O)[C@@H](N)Cc1ccc(O)cc1)[C@@H](C)O)[C@@H](C)O)[C@@H](C)CC)[C@@H](C)O)[C@@H](C)CC)C(=O)N[C@@H](CCC(=O)O)C(=O)NCC(=O)NCC(=O)N1CCC[C@H]1C(=O)N[C@@H](CO)C(=O)N[C@@H](CO)C(=O)NCC(N)=O) [Example 321] | 0.517 | 0.0752 | 0.437 | 0.204 |
| Y[Aib]EGTFTSDYSILLDKK([AEEA-AEEA-γGlu-C20 diacid])AQ[Aib]AFIEYLIAGGPSSG-NH2 (N-terminus assumed; SMILES CC[C@H](C)[C@H](NC(=O)[C@H](CC(C)C)NC(=O)[C@H](Cc1ccc(O)cc1)NC(=O)[C@H](CCC(=O)O)NC(=O)[C@@H](NC(=O)[C@H](Cc1ccccc1)NC(=O)[C@H](C)NC(=O)C(C)(C)NC(=O)[C@H](CCC(N)=O)NC(=O)[C@H](C)NC(=O)[C@H](CCCCNC(=O)COCCOCCNC(=O)COCCOCCNC(=O)CC[C@H](NC(=O)CCCCCCCCCCCCCCCCCCC(=O)O)C(=O)O)NC(=O)[C@H](CCCCN)NC(=O)[C@H](CC(=O)O)NC(=O)[C@H](CC(C)C)NC(=O)[C@H](CC(C)C)NC(=O)[C@@H](NC(=O)[C@H](CO)NC(=O)[C@H](Cc1ccc(O)cc1)NC(=O)[C@H](CC(=O)O)NC(=O)[C@H](CO)NC(=O)[C@@H](NC(=O)[C@H](Cc1ccccc1)NC(=O)[C@@H](NC(=O)CNC(=O)[C@H](CCC(=O)O)NC(=O)C(C)(C)NC(=O)[C@@H](N)Cc1ccc(O)cc1)[C@@H](C)O)[C@@H](C)O)[C@@H](C)CC)[C@@H](C)CC)C(=O)N[C@@H](C)C(=O)NCC(=O)NCC(=O)N1CCC[C@H]1C(=O)N[C@@H](CO)C(=O)N[C@@H](CO)C(=O)NCC(N)=O) [Example 317] | 1.01 | 0.0948 | 0.333 | 0.172 |
| Y[Aib]EGTFTSDYSILLDKK([AEEA-AEEA-γGlu-C20 diacid])AQ[Aib]EFIEYLIAGGPSSGAPPPS-NH2 (N-terminus assumed; SMILES CC[C@H](C)[C@H](NC(=O)[C@H](CC(C)C)NC(=O)[C@H](Cc1ccc(O)cc1)NC(=O)[C@H](CCC(=O)O)NC(=O)[C@@H](NC(=O)[C@H](Cc1ccccc1)NC(=O)[C@H](CCC(=O)O)NC(=O)C(C)(C)NC(=O)[C@H](CCC(N)=O)NC(=O)[C@H](C)NC(=O)[C@H](CCCCNC(=O)COCCOCCNC(=O)COCCOCCNC(=O)CC[C@H](NC(=O)CCCCCCCCCCCCCCCCCCC(=O)O)C(=O)O)NC(=O)[C@H](CCCCN)NC(=O)[C@H](CC(=O)O)NC(=O)[C@H](CC(C)C)NC(=O)[C@H](CC(C)C)NC(=O)[C@@H](NC(=O)[C@H](CO)NC(=O)[C@H](Cc1ccc(O)cc1)NC(=O)[C@H](CC(=O)O)NC(=O)[C@H](CO)NC(=O)[C@@H](NC(=O)[C@H](Cc1ccccc1)NC(=O)[C@@H](NC(=O)CNC(=O)[C@H](CCC(=O)O)NC(=O)C(C)(C)NC(=O)[C@@H](N)Cc1ccc(O)cc1)[C@@H](C)O)[C@@H](C)O)[C@@H](C)CC)[C@@H](C)CC)C(=O)N[C@@H](C)C(=O)NCC(=O)NCC(=O)N1CCC[C@H]1C(=O)N[C@@H](CO)C(=O)N[C@@H](CO)C(=O)NCC(=O)N[C@@H](C)C(=O)N1CCC[C@H]1C(=O)N1CCC[C@H]1C(=O)N1CCC[C@H]1C(=O)N[C@@H](CO)C(N)=O) [Example 319] | 2.77 | 0.054 | 0.522 | 0.113 |
| Y[Aib]EGTFTSDYSILLDKK([AEEA-AEEA-γGlu-C18 diacid])AQ[Aib]HFIEYLIEGGPSSG-NH2 (N-terminus assumed; SMILES CC[C@H](C)[C@H](NC(=O)[C@H](CC(C)C)NC(=O)[C@H](Cc1ccc(O)cc1)NC(=O)[C@H](CCC(=O)O)NC(=O)[C@@H](NC(=O)[C@H](Cc1ccccc1)NC(=O)[C@H](Cc1c[nH]cn1)NC(=O)C(C)(C)NC(=O)[C@H](CCC(N)=O)NC(=O)[C@H](C)NC(=O)[C@H](CCCCNC(=O)COCCOCCNC(=O)COCCOCCNC(=O)CC[C@H](NC(=O)CCCCCCCCCCCCCCCCC(=O)O)C(=O)O)NC(=O)[C@H](CCCCN)NC(=O)[C@H](CC(=O)O)NC(=O)[C@H](CC(C)C)NC(=O)[C@H](CC(C)C)NC(=O)[C@@H](NC(=O)[C@H](CO)NC(=O)[C@H](Cc1ccc(O)cc1)NC(=O)[C@H](CC(=O)O)NC(=O)[C@H](CO)NC(=O)[C@@H](NC(=O)[C@H](Cc1ccccc1)NC(=O)[C@@H](NC(=O)CNC(=O)[C@H](CCC(=O)O)NC(=O)C(C)(C)NC(=O)[C@@H](N)Cc1ccc(O)cc1)[C@@H](C)O)[C@@H](C)O)[C@@H](C)CC)[C@@H](C)CC)C(=O)N[C@@H](CCC(=O)O)C(=O)NCC(=O)NCC(=O)N1CCC[C@H]1C(=O)N[C@@H](CO)C(=O)N[C@@H](CO)C(=O)NCC(N)=O) [Example 322] | 0.266 | 0.146 | 0.125 | 0.711 |
| Y[Aib]EGTFTSDYSILLDKK([AEEA-AEEA-γGlu-C18 diacid])AQ[Aib]DFIEYLIEGGPSSG-NH2 (N-terminus assumed; SMILES CC[C@H](C)[C@H](NC(=O)[C@H](CC(C)C)NC(=O)[C@H](Cc1ccc(O)cc1)NC(=O)[C@H](CCC(=O)O)NC(=O)[C@@H](NC(=O)[C@H](Cc1ccccc1)NC(=O)[C@H](CC(=O)O)NC(=O)C(C)(C)NC(=O)[C@H](CCC(N)=O)NC(=O)[C@H](C)NC(=O)[C@H](CCCCNC(=O)COCCOCCNC(=O)COCCOCCNC(=O)CC[C@H](NC(=O)CCCCCCCCCCCCCCCCC(=O)O)C(=O)O)NC(=O)[C@H](CCCCN)NC(=O)[C@H](CC(=O)O)NC(=O)[C@H](CC(C)C)NC(=O)[C@H](CC(C)C)NC(=O)[C@@H](NC(=O)[C@H](CO)NC(=O)[C@H](Cc1ccc(O)cc1)NC(=O)[C@H](CC(=O)O)NC(=O)[C@H](CO)NC(=O)[C@@H](NC(=O)[C@H](Cc1ccccc1)NC(=O)[C@@H](NC(=O)CNC(=O)[C@H](CCC(=O)O)NC(=O)C(C)(C)NC(=O)[C@@H](N)Cc1ccc(O)cc1)[C@@H](C)O)[C@@H](C)O)[C@@H](C)CC)[C@@H](C)CC)C(=O)N[C@@H](CCC(=O)O)C(=O)NCC(=O)NCC(=O)N1CCC[C@H]1C(=O)N[C@@H](CO)C(=O)N[C@@H](CO)C(=O)NCC(N)=O) [Example 320] | 0.241 | 0.161 | 0.224 | 0.397 |
